Results as given in PMC4570272.

T1: Puf5p RNA-binding domain (Saccharomyces cerevisiae, UniProt P39016 201-600)
T1 sequence: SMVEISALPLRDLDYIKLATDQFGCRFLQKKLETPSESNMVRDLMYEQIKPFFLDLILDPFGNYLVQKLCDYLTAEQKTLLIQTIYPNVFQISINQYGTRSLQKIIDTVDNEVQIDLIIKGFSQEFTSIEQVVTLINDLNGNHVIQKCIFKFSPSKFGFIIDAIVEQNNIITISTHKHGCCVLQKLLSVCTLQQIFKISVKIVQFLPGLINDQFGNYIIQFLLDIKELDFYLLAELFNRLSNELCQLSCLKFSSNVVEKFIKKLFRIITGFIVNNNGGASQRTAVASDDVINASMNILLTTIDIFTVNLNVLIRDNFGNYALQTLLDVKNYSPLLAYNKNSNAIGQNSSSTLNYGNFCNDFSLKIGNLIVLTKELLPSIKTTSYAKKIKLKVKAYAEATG


Molecular target: T1, Puf5p RNA-binding domain
Assay: EMSA; EMSA: 10 mM HEPES pH 7.4, 50 mM NaCl, 1 mM EDTA, 0.1 mg/ml BSA, 0.01% Tween 20, 0.1 mg/ml yeast tRNA, 100 pM RNA, overnight at 4 C

| Binder | Kd [nM] |
| --- | --- |
| UGUAUUUGUA (ssRNA) [MFA2 (10)] | 179 |
| UGUAACUUUUUA (ssRNA) [AMN1 (12)] | 106 |
| UGUACUAUA (ssRNA) [SMX2 (9)] | 28.4 |
| UGUAAUGAUUA (ssRNA) [AAT2 (11)] | 345 |
| UGUAUAUA (ssRNA) [NRE (8)] | 3200 |
